{"source": "paper PMC11267843", "about": "“Transcription factor binding specificities of the oomycete Phytophthora infestans reflect conserved and divergent evolutionary patterns and predict function”", "binders": {"B1": {"name": "HSF three-site (dsDNA)", "DNA 1": "TAAATATAGCACGCGAATATTCTAGAAACTGCAGCACAACA", "DNA 2": "TGTTGTGCTGCAGTTTCTAGAATATTCGCGTGCTATATTTA"}, "B2": {"name": "HSF two-site (wild-type motif) (dsDNA)", "DNA 1": "TAAATATAGCACGCTTCTAGAAACTGCAGCACAACA", "DNA 2": "TGTTGTGCTGCAGTTTCTAGAAGCGTGCTATATTTA"}, "B3": {"name": "Myb wild-type motif (dsDNA)", "DNA 1": "CTACACTATCATTCTCCGTTACGTCCTACTGTATTGG", "DNA 2": "CCAATACAGTAGGACGTAACGGAGAATGATAGTGTAG"}}, "key": {"[1]": {"molecular_target": "PITG_04701 HSF (Phytophthora infestans, UniProt D0N1U7 1-190)", "assay": "EMSA", "settings": "protein: recombinant, tags: 6xHis, GST (N- or C-terminal, per PBM vectors), chain copies: 3, blunt"}, "[2]": {"molecular_target": "PITG_08807 2R-Myb (Phytophthora infestans, UniProt D0ND89 1-188)", "assay": "EMSA; self-competition with unlabeled DNA", "settings": "protein: recombinant; tags: 6xHis; GST (N- or C-terminal, per PBM vectors); label: Cy5 (probe); blunt"}}}
{"binder": "B1", "values": [{"measurement": "binding result", "setting": "[1]; label: Cy5", "result": "binds"}]}
{"binder": "B2", "values": [{"measurement": "binding result", "setting": "[1]; label: Cy5 (probe)", "result": "binds"}]}
{"binder": "B3", "values": [{"measurement": "binding result", "setting": "[2]", "result": "binds"}]}
